Where a chain is given by its changes, count along the chain named. In names and notes the source's numbering stands. One block for each binder: values may come before it.
Target: T1, HIS-tagged human NKG2D (human, UniProt P26718 73-216, limits assumed)
T1 construct: Captured on HIS1K biosensors; not shown: HIS tag
T1 sequence (looked up): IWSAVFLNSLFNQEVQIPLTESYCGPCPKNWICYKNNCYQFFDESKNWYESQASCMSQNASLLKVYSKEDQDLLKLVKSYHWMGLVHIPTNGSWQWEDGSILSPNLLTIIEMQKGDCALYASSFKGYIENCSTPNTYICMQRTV
Assay: Octet (BLI): His-tagged human NKG2D captured on HIS1K biosensors, dipped into 100 nM bivalent mAb

Kd: ≤ 1 pM | koff: ≤ 1e-07 s⁻¹ | kon: 231000 M⁻¹ s⁻¹
B1: XENP27593 (antibody, human IgG1, kappa, V domains shown)
VH: QVQLQESGPGLVAPSQSLSITCTVSGFSLTSYGVHWIRQPPGKGLEWLGVIWAGGSTNYNSALMSRLSISKDNSKSQVFLKMNSLQIDDTAMYYCARGGYEGAAWFGYWGQGTTVTVSS
VL: DIQLTQSPAILSASPGEKVTMTCRASSSVSYMHWYQQKPGSSPKPWIYATSNLASGVPARFSGSGSGTSYSLTISRVEAEDAATYYCQQWNSNPLTFGAGTKLEIKR
notes: bivalent anti-NKG2D mAb, IgG1 with ablation variants; also called 6H7E7[NKG2D]_H0L0_IgG1_PVA_/S267K

Kd: 613 pM | koff: 0.00113 s⁻¹ | kon: 1.85e+06 M⁻¹ s⁻¹
B2: XENP27597 (antibody, human IgG1, lambda, V domains shown)
VH: EVQLVESGGGVVQPGGSLRLSCAASGFTFSSYGMHWVRQAPGKGLEWVAFIRYDGSNKYYADSVKGRFTISRDNSKNTKYLQMNSLRAEDTAVYYCAKDRFGYYLDYWGQGTLVTVSS
VL: QPVLTQPSSVSVAPGETARIPCGGDDIETKSVHWYQQKPGQAPVLVIYDDDDRPSGIPERFFGSNSGNTATLSISRVEAGDEADYYCQVWDDNNDEWVFGGGTQLTVLG
notes: bivalent anti-NKG2D mAb, IgG1 with ablation variants; also called KYK-1.0[NKG2D]_H1L1_IgG1_PVA_/S267K

Kd: ≤ 1 pM | koff: ≤ 1e-07 s⁻¹ | kon: 698000 M⁻¹ s⁻¹
B3: XENP27596 (antibody, human IgG1, kappa, V domains shown)
VH: QVQLVQSGAEVKKPGASVKVSCKASGYTFTNYWMHWVRQAPGQGLEWMGEIDPSDIYTNYAQKFQGRVTMTRDTSTSTVYMELSSLRSEDTAVYYCARGIYDGYYVYGMDYWGQGTTVTVSS
VL: YIQMTQSPSSLSASVGDRVTITCRSSQDISNYLNWYQQKPGKAPKLLIYYTSRLHSGVPSRFSGSGSGTDFTFTISSLQPEDIATYYCQQGKTLPRTFGGGTKVEIKR
notes: bivalent anti-NKG2D mAb, IgG1 with ablation variants; also called mAb D[NKG2D]_H1L1_IgG1_PVA_/S267K

Kd: 506 pM | koff: 0.000357 s⁻¹ | kon: 706000 M⁻¹ s⁻¹
B4: XENP27607 (antibody, human IgG1, kappa, V domains shown)
VH: EVQLVESGGGLVQPGGSLRLSCAVSGFSLTIYGVHWVRQAPGKGLEWVSVIWSGGSTDYNAKVKGRFTISKDNSKRTVYLQMNSLRAEDTAVYYCSRKSHDGYYGVMDYWGQGTTVTVSS
VL: DIQLTQSPDFQSVTPKEKVTITCRASQSIGTSIHWYQQKPDQSPKLLIKYASESISGIPSRFSGSGSGTDFTLTINSLEAEDAATYYCQQSNTWPLTFGAGTKVEIKR
notes: humanized bivalent anti-NKG2D mAb, IgG1 with ablation variants; also called mAb C[NKG2D]_H1L1_IgG1_PVA_/S267K

Kd: 167 pM | koff: 8.64e-05 s⁻¹ | kon: 518000 M⁻¹ s⁻¹
B5: XENP27609 (antibody, human IgG1, kappa, V domains shown)
VH: QVQLVQSGAEVKKPGASVKVSCKVSGFSLTIYGVHWVRQAPGQGLEWMGVIWSGGSTDYNAKFQGRVTMTKDNSKRTVYMELSSLRSEDTAVYYCSRKSHDGYYGVMDYWGQGTTVTVSS
VL: B4 VL
notes: humanized bivalent anti-NKG2D mAb, IgG1 with ablation variants; also called mAb C[NKG2D]_H2L1_IgG1_PVA_/S267K

Kd: 371 pM | koff: 0.000308 s⁻¹ | kon: 832000 M⁻¹ s⁻¹
B6: XENP27608 (antibody, human IgG1, kappa, V domains shown)
VH: B4 VH
VL: DIQLTQSPSSLSASVGDRVTITCRASQSIGTSIHWYQQKPGKSPKLLIKYASESISGIPSRFSGSGSGTDFTLTISSLQPEDFATYYCQQSNTWPLTFGAGTKVEIKR
notes: humanized bivalent anti-NKG2D mAb, IgG1 with ablation variants; also called mAb C[NKG2D]_H1L2_IgG1_PVA_/S267K

Kd: 343 pM | koff: 0.000387 s⁻¹ | kon: 1.13e+06 M⁻¹ s⁻¹
B7: XENP27594 (antibody, V domains shown)
VH: EVQLVESGGGLVKPGGSLRLSCAASGFTFSSYSMNWVRQAPGKGLEWVSSITSSSSYIYYADSVKGRFTISRDNAKNSLYLQMNSLRAEDTAVYYCARDRRYFDWFPLDYRGQGTLVTVSS
VL: DIQMTQSPSSLSASVGDRVTITCRASQGISSWLAWYQQKPEKAPKSLIYAASSLQSGVPSRFSGSGSGTDFTLTISSLQPEDFATYYCQQYNGYPYTFGQGTKLEIKR
notes: bivalent anti-NKG2D mAb, IgG1 with ablation variants; also called mAb E[NKG2D]_H1L1_IgG1_PVA_/S267K

Kd: 547 pM | koff: 0.000792 s⁻¹ | kon: 1.45e+06 M⁻¹ s⁻¹
B8: XENP27591 (antibody, human IgG1, kappa, V domains shown)
VH: QVQLQQSGPELVRPGASVKLSCKASGYTFTSYWMNWVQQRPEQGLEWIGRIDPYDSETHYNQKFKDKAILTVDKSASTAYMQLSSLTSEDSAVYYCAKMGDYSFDYWGQGTTVTVSS
VL: DIQLTQSPASLSASVGETVTITCRASGNIHNYLAWYQQKQGKSPQVLVYNAKTLADGVPSRFSGSGSGTQYSLKINSLQPEDFGSYYCQHFWSTTWTFGGGTKLEIKR
notes: bivalent anti-NKG2D mAb, IgG1 with ablation variants; also called 11B2D10[NKG2D]_H0L0_IgG1_PVA_/S267K

Kd: ≤ 1 pM | koff: ≤ 1e-07 s⁻¹ | kon: 489000 M⁻¹ s⁻¹
B9: XENP27592 (antibody, human IgG1, kappa, V domains shown)
VH: QVQLQQSGPGLVQPSQSLSITCTVSGFSLTIYGVHWVRQSPGKGLEWLGVIWSGGSTDYNAAFISRLSISKDNSKRQVFFKMSSLQANDTAIYYCSRKSHDGYYGVMDYWGQGTTVTVSS
VL: DIQLTQSPAILSVSPGERVSFSCRASQSIGTSIHWYQQRTNGSPRLLIKYASESISGIPSRFSGSGSGTDFTLSINGVESEDIADYYCQQSNTWPLTFGAGTKLEIKR
notes: bivalent anti-NKG2D mAb, IgG1 with ablation variants; also called 6E5A7[NKG2D]_H0L0_IgG1_PVA_/S267K

Kd: ≤ 1 pM | koff: ≤ 1e-07 s⁻¹ | kon: 200000 M⁻¹ s⁻¹
B10: XENP27614 (antibody, human IgG1, kappa, V domains shown)
VH: QVQLQESGPGLVKPSETLSLTCTVSGFSLTSYGVHWIRQPPGKGLEWIGVIWAGGSTNYNPSLKSRVTISKDNSKSQVSLKLSSVTAADTAVYYCARGGYEGAAWFGYWGQGTLVTVSS
VL: DIQLTQSPATLSLSPGERATLSCRASSSVSYMHWYQQKPGQSPRPLIYATSNLASGVPARFSGSGSGTDYTLTISSLEPEDFAVYYCQQWNSNPLTFGAGTKVEIKR
notes: humanized bivalent anti-NKG2D mAb, IgG1 with ablation variants; also called mAb A[NKG2D]_H2L2_IgG1_PVA_/S267K

Kd: ≤ 1 pM | koff: ≤ 1e-07 s⁻¹ | kon: 224000 M⁻¹ s⁻¹
B11: XENP27612 (antibody, human IgG1, kappa, V domains shown)
VH: QVQLVQSGAEVKKPGASVKVSCKVSGFSLTSYGVHWIRQAPGQGLEWMGVIWAGGSTNYNSKFQGRVTMTKDNSKSTVYMELSSLRSEDTAVYYCARGGYEGAAWFGYWGQGTLVTVSS
VL: B10 VL
notes: humanized bivalent anti-NKG2D mAb, IgG1 with ablation variants; also called mAb A[NKG2D]_H1L2_IgG1_PVA_/S267K

Kd: ≤ 1 pM | koff: ≤ 1e-07 s⁻¹ | kon: 254000 M⁻¹ s⁻¹
B12: XENP27613 (antibody, human IgG1, kappa, V domains shown)
VH: B10 VH
VL: DIQLTQSPSSLSASVGDRVTITCRASSSVSYMHWYQQKPGKSPKPLIYATSNLASGVPARFSGSGSGTDYTLTISSLQPEDFATYYCQQWNSNPLTFGAGTKVEIKR
notes: humanized bivalent anti-NKG2D mAb, IgG1 with ablation variants; also called mAb A[NKG2D]_H2L1_IgG1_PVA_/S267K

Kd: ≤ 1 pM | koff: ≤ 1e-07 s⁻¹ | kon: 228000 M⁻¹ s⁻¹
B13: XENP27611 (antibody, human IgG1, kappa, V domains shown)
VH: B11 VH
VL: B12 VL
notes: humanized bivalent anti-NKG2D mAb, IgG1 with ablation variants; also called mAb A[NKG2D]_H1L1_IgG1_PVA_/S267K

Kd: 679 pM | koff: 0.000746 s⁻¹ | kon: 1.1e+06 M⁻¹ s⁻¹
B14: XENP27598 (antibody, human IgG1, kappa, V domains shown)
VH: QVQLVQSGAEVKKPGASVKVSCKASGYTFTSYWMNWVRQAPGQGLEWMGRIDPYDSETHYNQKFQGRVTMTVDKSTSTAYMELSSLRSEDTAVYYCAKMGDYSFDYWGQGTLVTVSS
VL: DIQLTQSPSSLSASVGDRVTITCRASGNIHNYLAWYQQKPGKSPKVLVYNAKTLADGVPSRFSGSGSGTDYTLTISSLQPEDFATYYCQHFWSTTWTFGGGTKVEIKR
notes: humanized bivalent anti-NKG2D mAb, IgG1 with ablation variants; also called mAb B[NKG2D]_H1L1_IgG1_PVA_/S267K

Kd: 1010 pM | koff: 0.00194 s⁻¹ | kon: 1.91e+06 M⁻¹ s⁻¹
B15: XENP27604 (antibody, human IgG1, kappa, V domains shown)
VH: EVQLVESGGGLVQPGGSLRLSCAASGYTFTSYWMNWVRQAPGKGLVWVSRIDPYDSETHYNQKVKGRFTISVDKAKSTAYLQMNSLRAEDTAVYYCAKMGDYSFDYWGQGTLVTVSS
VL: B14 VL
notes: humanized bivalent anti-NKG2D mAb, IgG1 with ablation variants; also called mAb B[NKG2D]_H3L1_IgG1_PVA_/S267K

Kd: 894 pM | koff: 0.0011 s⁻¹ | kon: 1.23e+06 M⁻¹ s⁻¹
B16: XENP27601 (antibody, human IgG1, kappa, V domains shown)
VH: EVQLVQSGAEVKKPGESLRISCKASGYTFTSYWMNWVRQMPGKGLEWMGRIDPYDSETHYNPSFQGHVTISVDKSISTAYLQWSSLKASDTAMYYCAKMGDYSFDYWGQGTLVTVSS
VL: B14 VL
notes: humanized bivalent anti-NKG2D mAb, IgG1 with ablation variants; also called mAb B[NKG2D]_H2L1_IgG1_PVA_/S267K

Kd: 1950 pM | koff: 0.00144 s⁻¹ | kon: 740000 M⁻¹ s⁻¹
B17: XENP27602 (antibody, human IgG1, kappa, V domains shown)
VH: B16 VH
VL: B14 VL with T95P
notes: humanized bivalent anti-NKG2D mAb, IgG1 with ablation variants; also called mAb B[NKG2D]_H2_L1.1_IgG1_PVA_/S267K

Kd: 3500 pM | koff: 0.00169 s⁻¹ | kon: 482000 M⁻¹ s⁻¹
B18: XENP27599 (antibody, human IgG1, kappa, V domains shown)
VH: B14 VH
VL: B14 VL with T95P
notes: humanized bivalent anti-NKG2D mAb, IgG1 with ablation variants; also called mAb B[NKG2D]_H1_L1.1_IgG1_PVA_/S267K

Kd: 703 pM | koff: 0.00121 s⁻¹ | kon: 1.73e+06 M⁻¹ s⁻¹
B19: XENP27603 (antibody, human IgG1, kappa, V domains shown)
VH: B16 VH
VL: DIQLTQSPDSLAVSLGERATINCKASGNIHNYLAWYQQKPGQSPKVLVYNAKTLADGVPSRFSGSGSGTDYTLTISSLQAEDVAVYYCQHFWSTTWTFGGGTKVEIKR
notes: humanized bivalent anti-NKG2D mAb, IgG1 with ablation variants; also called mAb B[NKG2D]_H2L2_IgG1_PVA_/S267K

Kd: 595 pM | koff: 0.000666 s⁻¹ | kon: 1.12e+06 M⁻¹ s⁻¹
B20: XENP27600 (antibody, human IgG1, kappa, V domains shown)
VH: B14 VH
VL: B19 VL
notes: humanized bivalent anti-NKG2D mAb, IgG1 with ablation variants; also called mAb B[NKG2D]_H1L2_IgG1_PVA_/S267K

Kd: 3280 pM | koff: 0.00943 s⁻¹ | kon: 2.88e+06 M⁻¹ s⁻¹
B21: XENP27605 (antibody, human IgG1, kappa, V domains shown)
VH: B15 VH
VL: B14 VL with T95P
notes: humanized bivalent anti-NKG2D mAb, IgG1 with ablation variants; also called mAb B[NKG2D]_H3_L1.1_IgG1_PVA_/S267K

Kd: 1150 pM | koff: 0.00204 s⁻¹ | kon: 1.77e+06 M⁻¹ s⁻¹
B22: XENP27606 (antibody, human IgG1, kappa, V domains shown)
VH: B15 VH
VL: B19 VL
notes: humanized bivalent anti-NKG2D mAb, IgG1 with ablation variants; also called mAb B[NKG2D]_H3L2_IgG1_PVA_/S267K

Kd: 199 pM | koff: 0.000145 s⁻¹ | kon: 727000 M⁻¹ s⁻¹
B23: XENP27610 (antibody, human IgG1, kappa, V domains shown)
VH: B5 VH
VL: B6 VL
notes: humanized bivalent anti-NKG2D mAb, IgG1 with ablation variants; also called mAb C[NKG2D]_H2L2_IgG1_PVA_/S267K

Source: US12448423 (Xencor, dated 2025)
